Experimental data taken from PMC3360964 (Molecular Cell, 2012).

Legend:
Assay in all cases: pull-down
[1] = target: T1, F-AFF4(Δ301–400), affinity-purified (UniProt Q9UHB7 1-1163, Δ301–400)
T1 sequence (looked up): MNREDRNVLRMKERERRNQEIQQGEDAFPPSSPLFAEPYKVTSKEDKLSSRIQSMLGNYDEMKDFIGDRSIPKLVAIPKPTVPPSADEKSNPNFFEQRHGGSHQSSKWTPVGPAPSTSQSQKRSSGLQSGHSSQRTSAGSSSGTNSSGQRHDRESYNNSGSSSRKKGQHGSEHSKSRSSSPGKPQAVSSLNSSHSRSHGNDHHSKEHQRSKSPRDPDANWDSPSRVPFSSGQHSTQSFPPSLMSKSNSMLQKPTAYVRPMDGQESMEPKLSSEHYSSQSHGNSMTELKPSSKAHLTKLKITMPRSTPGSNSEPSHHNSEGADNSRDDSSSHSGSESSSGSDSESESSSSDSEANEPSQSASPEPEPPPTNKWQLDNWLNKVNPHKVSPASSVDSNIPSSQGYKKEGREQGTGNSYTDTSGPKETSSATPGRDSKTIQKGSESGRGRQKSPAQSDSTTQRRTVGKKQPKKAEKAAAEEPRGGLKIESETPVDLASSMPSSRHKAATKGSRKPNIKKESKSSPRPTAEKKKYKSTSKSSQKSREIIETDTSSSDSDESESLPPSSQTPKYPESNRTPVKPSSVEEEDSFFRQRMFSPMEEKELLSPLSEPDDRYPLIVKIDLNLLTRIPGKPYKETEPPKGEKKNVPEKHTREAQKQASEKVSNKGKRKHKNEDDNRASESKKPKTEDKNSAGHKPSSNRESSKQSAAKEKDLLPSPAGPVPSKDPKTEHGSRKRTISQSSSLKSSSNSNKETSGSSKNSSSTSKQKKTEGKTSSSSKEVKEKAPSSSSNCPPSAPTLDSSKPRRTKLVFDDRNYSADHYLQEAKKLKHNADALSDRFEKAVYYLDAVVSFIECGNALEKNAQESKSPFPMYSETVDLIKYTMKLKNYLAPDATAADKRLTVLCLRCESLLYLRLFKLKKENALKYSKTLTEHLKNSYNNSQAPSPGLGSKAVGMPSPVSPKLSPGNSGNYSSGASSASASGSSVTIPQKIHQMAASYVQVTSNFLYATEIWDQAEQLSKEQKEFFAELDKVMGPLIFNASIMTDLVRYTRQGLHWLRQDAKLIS

[2] = target: T2, F-AFF4, wild type, affinity-purified (UniProt Q9UHB7 1-1163)
T2 sequence (looked up): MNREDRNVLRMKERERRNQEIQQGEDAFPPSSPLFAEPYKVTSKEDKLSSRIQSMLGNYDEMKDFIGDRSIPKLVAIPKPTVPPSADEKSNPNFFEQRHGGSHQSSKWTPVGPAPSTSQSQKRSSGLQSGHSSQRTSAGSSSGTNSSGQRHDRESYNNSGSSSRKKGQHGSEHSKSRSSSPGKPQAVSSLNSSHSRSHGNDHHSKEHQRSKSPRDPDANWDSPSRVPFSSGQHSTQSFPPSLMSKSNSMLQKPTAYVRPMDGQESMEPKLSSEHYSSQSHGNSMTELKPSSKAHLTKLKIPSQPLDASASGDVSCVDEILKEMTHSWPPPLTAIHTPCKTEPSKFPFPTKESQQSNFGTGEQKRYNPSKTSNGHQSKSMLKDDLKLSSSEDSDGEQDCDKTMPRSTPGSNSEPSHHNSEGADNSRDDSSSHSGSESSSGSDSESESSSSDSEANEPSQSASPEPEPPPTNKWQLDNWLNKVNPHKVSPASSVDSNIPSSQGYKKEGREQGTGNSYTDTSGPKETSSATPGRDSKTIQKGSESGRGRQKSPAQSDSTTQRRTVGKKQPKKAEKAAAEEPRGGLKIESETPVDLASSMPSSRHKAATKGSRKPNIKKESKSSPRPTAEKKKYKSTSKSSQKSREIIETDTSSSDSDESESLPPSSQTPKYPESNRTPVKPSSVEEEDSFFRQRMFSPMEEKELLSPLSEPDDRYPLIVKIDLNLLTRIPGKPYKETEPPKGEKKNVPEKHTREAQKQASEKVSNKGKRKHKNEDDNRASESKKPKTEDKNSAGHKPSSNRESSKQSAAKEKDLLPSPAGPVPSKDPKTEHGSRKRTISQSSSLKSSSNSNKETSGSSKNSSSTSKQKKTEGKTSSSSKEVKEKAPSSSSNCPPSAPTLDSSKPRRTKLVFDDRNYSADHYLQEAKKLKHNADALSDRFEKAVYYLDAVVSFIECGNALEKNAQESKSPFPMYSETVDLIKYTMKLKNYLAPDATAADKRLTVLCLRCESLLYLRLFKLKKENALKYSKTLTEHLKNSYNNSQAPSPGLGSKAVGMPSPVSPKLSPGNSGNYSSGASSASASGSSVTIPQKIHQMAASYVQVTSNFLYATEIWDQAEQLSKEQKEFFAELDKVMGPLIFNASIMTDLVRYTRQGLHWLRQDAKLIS

[3] = target: ELL2-F, affinity-purified (UniProt O00472 1-640)
Sequence of ELL2-F, affinity-purified (O00472 whole entry): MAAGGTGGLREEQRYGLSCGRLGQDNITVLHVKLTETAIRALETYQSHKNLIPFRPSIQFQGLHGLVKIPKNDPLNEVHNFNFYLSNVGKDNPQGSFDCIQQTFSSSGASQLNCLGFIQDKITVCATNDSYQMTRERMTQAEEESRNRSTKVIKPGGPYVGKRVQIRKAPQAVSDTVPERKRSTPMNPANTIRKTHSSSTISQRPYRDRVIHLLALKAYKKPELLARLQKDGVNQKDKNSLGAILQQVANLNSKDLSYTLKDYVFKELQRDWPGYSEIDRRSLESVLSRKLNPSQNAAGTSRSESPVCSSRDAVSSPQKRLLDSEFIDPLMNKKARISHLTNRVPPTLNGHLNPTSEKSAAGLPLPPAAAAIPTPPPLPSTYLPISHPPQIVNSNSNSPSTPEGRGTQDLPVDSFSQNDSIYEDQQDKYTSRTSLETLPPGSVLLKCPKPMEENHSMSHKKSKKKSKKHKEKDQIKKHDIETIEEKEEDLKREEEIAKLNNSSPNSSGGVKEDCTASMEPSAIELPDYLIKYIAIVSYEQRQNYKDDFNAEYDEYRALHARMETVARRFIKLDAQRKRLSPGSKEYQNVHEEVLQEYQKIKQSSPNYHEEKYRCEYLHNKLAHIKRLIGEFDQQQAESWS

Measured: binding result

B1: HA-Siah1 immobilized on anti-HA beads (enzyme, human, UniProt Q8IUQ4-2 1-313, looked up)
chain: MTGKATPPSLYSWRGVLFTCLPAARTRKRKEMSRQTATALPTGTSKCPPSQRVPALTGTTASNNDLASLFECPVCFDYVLPPILQCQSGHLVCSNCRPKLTCCPTCRGPLGSIRNLAMEKVANSVLFPCKYASSGCEITLPHTEKADHEELCEFRPYSCPCPGASCKWQGSLDAVMPHLMHQHKSITTLQGEDIVFLATDINLPGAVDWVMMQSCFGFHFMLVLEKQEKYDGHQQFFAIVQLIGTRKQAENFAYRLELNGHRRRLTWEATPRSIHEGIATAIMNSDCLVFDTSIAQLFAENGNLGINVTISMC
binds: all assays above
